What was measured:
[1] = target: T1, full-length HspB6 (human, UniProt O14558 1-160); experiment: native gel or EMSA; clear native PAGE, 12.5% gel, 80 mM glycine–Tris pH 8.6; sHsp 5–6 μM per monomer mixed with ACD 20–24 μM per monomer, 30 min at 25 °C in buffer B; Western blot with anti-HspB6 for the complexes of HspB6; conditions: both partners purified
T1 construct: Predominantly dimeric by cited work; also called B6FL
T1 sequence (looked up): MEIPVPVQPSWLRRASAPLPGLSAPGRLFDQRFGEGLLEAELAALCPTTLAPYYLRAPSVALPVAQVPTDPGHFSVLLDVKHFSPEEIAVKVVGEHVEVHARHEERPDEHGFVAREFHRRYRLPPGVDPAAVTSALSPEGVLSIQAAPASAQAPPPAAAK

[2] = target: T2, 3D mutant of HspB1 (S15D, S78D, S82D) (human, UniProt P04792 1-205, S15D | S78D | S82D); experiment: SEC; full-length sHsp (~19–20 μM per monomer) mixed with ACD (38–110 μM per monomer) in buffer B, 30 min at 42 °C; Superdex 200 Increase column in 50 mM phosphate pH 7.4, 150 mM NaCl, 2 mM DTT; fractions analysed by SDS–PAGE; conditions: both partners purified
T2 construct: human HspB1, full length, with three phosphomimicking point mutations; Forms small oligomers (probably dimers or tetramers, by cited work); also called full-length 3D mutant
T2 sequence (P04792 whole entry S15D/S78D/S82D): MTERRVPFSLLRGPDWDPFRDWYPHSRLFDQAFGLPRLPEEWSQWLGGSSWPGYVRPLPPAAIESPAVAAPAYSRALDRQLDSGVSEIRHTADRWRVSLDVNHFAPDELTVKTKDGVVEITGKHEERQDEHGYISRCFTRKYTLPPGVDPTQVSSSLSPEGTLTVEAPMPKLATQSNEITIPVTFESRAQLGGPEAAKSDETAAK

[3] = target: the molecule itself; experiment: SEC; Superdex 75 10/300 GL, 50 mM phosphate pH 7.4, 150 mM NaCl, 2 mM DTT; 25 μL samples of 16–150 μg (25–600 μM per monomer); apparent dissociation constant, dimer to monomers, from a hyperbolic fit of elution volume against the concentration loaded
[4] = target: the molecule itself; experiment: cross-linking; glutaraldehyde 0.008% or 0.024%, ACDs at 3 mg/mL in 25 mM HEPES pH 7.5, 30 min at 30 °C; Tricine–SDS–PAGE

B1: α-crystallin domain of HspB5 (B5ACD) (domain or fragment, human, UniProt P02511 64-150, looked up)
chain: GLSEMRLEKDRFSVNLDVKHFSPEELKVKVLGDVIEVHGKHEERQDEHGFISREFHRKYRIPADVDPLTITSSLSSDGVLTVNGPRK
notes: human HspB5 (αB-crystallin), α-crystallin domain, residues 64-150; Cloned by NdeI and XhoI into pET23b; In equilibrium of monomers and dimers; also called HspB5 ACD; source: E. coli, purified (ammonium sulfate fractionation, ion-exchange chromatography, size-exclusion chromatography)
Does B1 bind [1]?
Result: binds

Does B1 bind [2]?
Result: binds

What about the Kd [3] of the same binder?
The Kd was 127 µM.

What about the “stoichiometry N” value [4] of the same binder?
Its value is 2.

B2: α-crystallin domain of HspB6 (B6ACD) (domain or fragment, human, UniProt O14558 64-149, looked up)
chain: VAQVPTDPGHFSVLLDVKHFSPEEIAVKVVGEHVEVHARHEERPDEHGFVAREFHRRYRLPPGVDPAAVTSALSPEGVLSIQAAPA
notes: human HspB6, α-crystallin domain, residues 64-149; Cloned by NdeI and XhoI into pET23b; In equilibrium of monomers and dimers; also called HspB6 ACD; source: E. coli, purified (ammonium sulfate fractionation, ion-exchange chromatography, size-exclusion chromatography)
Does B2 bind [2]?
Result: binds

What about the Kd [3] of the same binder?
The Kd was 162 µM.

From paper PMC9860685, “α-Crystallin Domains of Five Human Small Heat Shock Proteins (sHsps) Differ in Dimer Stabilities and Ability to Incorporate Themselves into Oligomers of Full-Length sHsps” (International Journal of Molecular Sciences, 2023)
